“Also recorded” adds a separate entry of the source. Residues, ends and D or L forms follow the SMILES beside them.
T1: clipsin/RMCP I (Rattus norvegicus, UniProt P09650)
T1 sequence (P09650 21-260): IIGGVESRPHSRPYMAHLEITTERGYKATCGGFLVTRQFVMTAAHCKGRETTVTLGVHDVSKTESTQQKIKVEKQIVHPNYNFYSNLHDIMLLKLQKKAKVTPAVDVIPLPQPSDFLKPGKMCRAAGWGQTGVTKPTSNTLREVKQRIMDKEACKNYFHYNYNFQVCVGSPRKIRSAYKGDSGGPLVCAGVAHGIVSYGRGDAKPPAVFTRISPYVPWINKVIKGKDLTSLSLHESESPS

B1: α1-ACT: general plasma serine proteinase inhibitor (protein, UniProt P01011 24-423, looked up)
Alpha-1-antichymotrypsin: HPNSPLDEENLTQENQDRGTHVDLGLASANVDFAFSLYKQLVLKAPDKNVIFSPLSISTALAFLSLGAHNTTLTEILKGLKFNLTETSEAEIHQSFQHLLRTLNQSSDELQLSMGNAMFVKEQLSLLDRFTEDAKRLYGSEAFATDFQDSAAAKKLINDYVKNGTRGKITDLIKDLDSQTMMVLVNYIFFKAKWEMPFDPQDTHQSRFYLSKKKWVMVPMMSLHHLTIPYFRDEELSCTVVELKYTGNASALFILPDQDKMEEVEAMLLPETLKRWRDSLEFREIGELYLPKFSISRDYNLNDILLQLGIEEAFTSKADLSGITGARNLAVSQVVHKAVLDVFEEGTEASAATAVKITLLSALVETRTIVRFNRPFLMIIVPTDTQNIFFMSKVTNPKQA

How the values were obtained:
amyloidin [1] = target: T2, amyloidin (Homo sapiens, UniProt P52888); assay: Cleavage of APP592-601 and its analogs by amyloidin (subsite requirements); format: biochemical; details: pH 7.5, CaCl2, 37° C., 60 min; RP-HPLC
T2 construct: from tissue; a purification from blood is also described
Method: (§1) Routinely, 25 ul of enzyme solution were mixed with 10 ul of 1M Tris, pH 7.5, 5 ul 10 mM CaCl2, and 10 ul of a 2 mg/ml Stock solution of APP592-601 in water, or 20 mM Tris, pH 7.5, 0.15M NaCl, in 1.5 ml polypropylene microfuge tubes. The reaction mixtures were incubated for 60 min at 37° C. in a water bath, then quenched with 450 ul ice-cold ethanol, and incubated on ice for a further 20 min. They were centrifuged at 15,000×g for 10 min, and the supernatants transferred to new polypropylene tubes and dried under vacuum. The residue was dissolved in 0.5 ml water, centrifuged at 15,000×g for 5 min, and 200 ul of the supernatant injected onto a 0.46×30 cm Vydac C18 column equilibrated with 0.1% trifluoroacetic acid in water, at 1 ml/min. The column was immediately eluted with a linear gradient to 40% acetronitrile in 0.1% trifluoroacetic acid in water, over 20 minutes. The elution was monitored at 220 nm, and peaks were individually collected, hydrolyzed in 6N HCl at […] for 2 hr, then subjected to quantitative amino-acid analysis in an Applied Biosystems amino-acid analyzer. Once identified, times of elution were used to identify cleavage patterns.
In order to test the subsite requirements of amyloidin in the APP592-601 cleavage assay, analogs of this peptide substrate were synthesized.
Following synthesis and purification, the peptides were then incubated with amyloidin under conditions identical to those developed with APP592-601. The underlined residues designated changes from the native peptide sequence while the arrows indicate peptide cleavage sites. [drawing 5]

clipsin/RMCP I = target: T1, clipsin/RMCP I; assay: Cleavage of APP592-601 by clipsin/RMCP I; format: biochemical; details: standard peptide cleavage assay
Method: as §1
The procedure to isolate RMCP I was adapted exactly from that described by Nelson & Siman (1990), supra. […]

[2] = test system: extracts of mammalian tissues; assay: Cleavage of amyloid-like substrate by soluble tissue extracts; format: biochemical; details: low-ionic strength extract; 0.1 to 10 mM Ca++; pH 6.5 to 8
Method: To isolate the amyloid protease activities of the present invention, extracts of mammalian tissues were made in a variety of aqueous buffers, such as, for example, Tris, phosphate and HEPES, of about 20-50 mM pH 7.5, at 4°-8° C., using conventional homogenation procedures, such as, for example, Waring blender or Teflon homogenizer, followed by repeated centrifugation at 10,000-15,000×g. The supernatant soluble fraction from this stage ("low ionic strength") are decanted and the pellet is further extracted with high ionic strength salt, for example 1M NaCl, and a detergent, such as 1% Triton X-100. If, however, the amyloidin proteases are to be isolated from mammalian cells such as erythrocytes, conventional cell disruption techniques may be employed. Such techniques include homogenization, sonication, osmotic lysis and pressure cycling. Prior to disruption, the cells may be first concentrated by filtration, centrifugation, or other conventional methods.
The various extracts are generally incubated with the amyloid-like substrates under a variety of conditions. […]
Aliquots of the sample are analyzed by injection onto a C18 reversed-phase HPLC column and elution with a 0-60% gradient of 0.1% TFA/acetonitrile, to assess the degradation of the substrate. […] Little peptide cleavage activity was detected under other extraction conditions, for example, with high salt or detergents. […]

human skin chymase (HSC) [3] = assay: Cleavage of APP592-601 by human skin chymase; format: biochemical; details: 200 ng enzyme; standard peptide cleavage assay
Method: as §1

human skin chymase (HSC) [4] = details: known before; cited from earlier work
RMCP I [5] = details: known before; listed as α1 -antichymotrypsin; cited from earlier work
RMCP I [6] = assay: Inhibition of RMCP I, Suc-Ala-Ala-Pro-Phe-pNA hydrolysing activity; format: biochemical, rat; details: pre-treatment with 200 ng
brain protease = details: Abraham et al; cited from earlier work
amyloidin [7] = target: T2, amyloidin; assay: Inhibition of amyloidin by various inhibitors (APP592-601 peptide cleavage); format: biochemical
RMCP I [8] = assay: Inhibition of RMCP I, APP592-601 cleaving activity; format: biochemical, rat; details: pre-treatment with 200 ng

T2 sequence (P52888 whole entry): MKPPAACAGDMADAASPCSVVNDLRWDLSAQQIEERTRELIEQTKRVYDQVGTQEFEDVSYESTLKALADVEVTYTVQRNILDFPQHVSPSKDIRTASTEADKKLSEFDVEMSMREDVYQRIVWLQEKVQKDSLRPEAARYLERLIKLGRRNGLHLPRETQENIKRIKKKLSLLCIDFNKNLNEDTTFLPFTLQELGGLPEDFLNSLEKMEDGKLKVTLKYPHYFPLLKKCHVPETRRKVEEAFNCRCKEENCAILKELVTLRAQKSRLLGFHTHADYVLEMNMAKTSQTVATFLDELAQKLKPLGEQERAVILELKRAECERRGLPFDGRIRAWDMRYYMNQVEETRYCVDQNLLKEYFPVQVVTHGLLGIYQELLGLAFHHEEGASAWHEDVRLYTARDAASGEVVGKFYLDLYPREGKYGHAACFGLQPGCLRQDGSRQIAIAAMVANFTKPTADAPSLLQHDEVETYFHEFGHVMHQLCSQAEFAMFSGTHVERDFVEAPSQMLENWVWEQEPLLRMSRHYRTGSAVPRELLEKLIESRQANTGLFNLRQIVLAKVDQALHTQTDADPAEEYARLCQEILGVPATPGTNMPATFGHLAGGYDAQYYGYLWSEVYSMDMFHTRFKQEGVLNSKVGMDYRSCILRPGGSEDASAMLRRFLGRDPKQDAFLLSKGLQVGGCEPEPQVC

| site of cleavage by amyloidin (amyloidin [1]) | % Control Activity (amyloidin [7]; assay conc. 30 ug/ml, 30 min pre-incubation, room temperature) | Molecule | site of cleavage of APP592-601 by clipsin/RMCP I (clipsin/RMCP I) | major sites of cleavage by crude tissue extract [2] | site of cleavage of APP592-601 by human skin chymase (human skin chymase (HSC) [3]) | inhibition of HSC, as known (human skin chymase (HSC) [4]) | inhibition of RMCP I, as known (RMCP I [5]) | inhibition of Suc-Ala-Ala-Pro-Phe-pNA hydrolysing activity (RMCP I [6]) | inhibition of peptide cleavage by brain protease (brain protease) | inhibitory effect on amyloidin (amyloidin [7]; in words) | inhibition of APP592-601 cleaving protease activity (RMCP I [8]) |
| --- | --- | --- | --- | --- | --- | --- | --- | --- | --- | --- | --- |
| three-site cleavage |  | CSCC[C@H](NC(=O)[C@H](CCCCN)NC(=O)[C@@H](NC(=O)[C@H](CCC(=O)O)NC(=O)[C@H](CO)NC(C)=O)C(C)C)C(=O)N[C@@H](CC(=O)O)C(=O)N[C@@H](C)C(=O)N[C@@H](CCC(=O)O)C(=O)N[C@@H](Cc1ccccc1)C(=O)N[C@@H](CCCNC(=N)N)C(=O)O [APP592-601] (Ac-SEVKMDAEFR-OH) | cleavage at the Met-Asp bond; also recorded: selectively cleaves the amyloid substrate APP592-601 at the Met-Asp peptide bond; also recorded: all three proteases cleaved the APP592-601 peptide at the Met-Asp bond | between the Met-Asp, the Asp-Ala, and the Ala-Glu bonds | cleavage at the Met-Asp bond; also recorded: all three proteases cleaved the APP592-601 peptide at the Met-Asp bond |  |  |  |  |  |  |
|  | 121% | B1 |  |  |  | inhibitable | strong inhibitor of RMCP I; also recorded: inhibitable | completely eliminated | inhibited | Neither α-1-proteinase inhibitor or α-1-antichymotrypsin, two general plasma serine proteinase inhibitors, had any inhibitory effect | completely inhibited |
